The source of these data is publication PMC8163098.

In experiment [1] the target is mouse 80S ribosomes (monosomes) and polysomes (mouse (endogenous in neocortex and Neuro2a)) (UniProt P84099). Kind of experiment: cryo-EM structure.
Experiment [2] concerns the target rabbit reticulocyte 60S ribosomal subunit (rabbit (endogenous in reticulocyte lysate)) (UniProt G1SV32). Kind of experiment: co-sedimentation.

Regarding “ErbB3-binding protein 1 (Ebp1), endogenous full-length mouse protein (from UniProt P50580-1 1-394) (natural protein)”, in experiment [1], the overall occupancy was found to be 52%; the percent of ribosomes with Ebp1 bound amounted to 48%; the percent of ribosomes with Ebp1 bound, each of the five sub-states came to 50%.

With “polyhistidine-tagged full-length recombinant Ebp1 (Ebp1-His) (from UniProt P50580 1-394) (natural protein)”, in experiment [2], the Ebp1 concentration at saturated binding (100 nM 60S) came to 200 nM and the Kd came to 0.124 µM.
